How the values were obtained:
[1] = target: 类风湿因子RF in clinical false-positive serum samples 9233354 (RF1) and 9233353 (RF2); test: cell-based or functional assay
[2] = target: 天然类风湿因子RF (natural rheumatoid factor; 北京霍尔姆斯(Holmes)生物技术有限公司, 货号HA129AN); test: indirect ELISA, RF coated, ascites diluted 1:100
[3] = target: 天然类风湿因子RF (natural rheumatoid factor; 北京霍尔姆斯(Holmes)生物技术有限公司, 货号HA129AN); test: indirect ELISA, RF coated, ascites diluted 1:500
[4] = target: 天然类风湿因子RF (natural rheumatoid factor; 北京霍尔姆斯(Holmes)生物技术有限公司, 货号HA129AN); test: indirect ELISA, RF coated, ascites diluted 1:2500
[5] = target: 天然类风湿因子RF (natural rheumatoid factor; 北京霍尔姆斯(Holmes)生物技术有限公司, 货号HA129AN); test: indirect ELISA, RF coated, ascites diluted 1:12500
[6] = target: 天然类风湿因子RF (natural rheumatoid factor; 北京霍尔姆斯(Holmes)生物技术有限公司, 货号HA129AN); test: indirect ELISA, RF coated, ascites diluted 1:62500
[7] = target: 天然类风湿因子RF (natural rheumatoid factor; 北京霍尔姆斯(Holmes)生物技术有限公司, 货号HA129AN); test: indirect ELISA, RF coated, ascites diluted 1:312500
[8] = target: 天然类风湿因子RF (natural rheumatoid factor; 北京霍尔姆斯(Holmes)生物技术有限公司, 货号HA129AN); test: indirect ELISA, RF coated, ascites diluted 1:1562500

干扰的影响降低 (免疫胶体金平台) [1]: 10 倍 | ELISA read-out at ascites dilution 100 [2]: 2.01 | ELISA read-out at ascites dilution 500 [3]: 1.82 | ELISA read-out at ascites dilution 2500 [4]: 1.52 | ELISA read-out at ascites dilution 12500 [5]: 1.17 | ELISA read-out at ascites dilution 62500 [6]: 0.715 | ELISA read-out at ascites dilution 312500 [7]: 0.461 | ELISA read-out at ascites dilution 1562500 [8]: 0.195
B1: 单克隆抗体anti-blocker-MAB7 (A3-2) (antibody, V domains shown)
VH: VKLQQSGPGLVKPSQSLSLTCTVTGYSITSDYAWNWIRQFPGNKLEWMGYISYSGSTSYNPSLQSRISITRDTSKNQFFLQLNSVTTEDTATYYCARLANWVFDYWGQGTTLTVSS
VL: DIQMTQSPASLSVSVGETVTITCRASENIYSFLAWYQQKQGKSPQLLVYAATNLADGVPSRFSGSGSGTQYSLKINSLQYEDFGSYYCQHFRGTPYTFGGGTRL

From patent CN115746131A
